± gives the standard deviation of the averaged measurements.
B1: library; a variant is named by its letters at N, in order (parent)
chain: AATGTTGTTGATGCAACCATAAAGTGATATTTAATAATTATTTATAATCAGCAACTTAACCACAAAACAACCATATATTGATATNTCACAAAACAACCATAANTTGATATTTTTGTGAATCGAGTATTTCAGCAAAACTACTGCAGTAAGAA

Assays:
[1] = variants of: B1; experiment: relative integration efficiency (T-LR orientation) vs wild-type transposon end (log2 (normalized fold change)); transposon end mutated: left end; higher = more efficient transposition; details: with VchCAST RNA-guided transposition machinery (E. coli BL21(DE3) host, lacZ target)
Outline: (§1)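 Barcoded pools of 1549 left-end or 1849 right-end transposon variants were cloned into a pUC57 mini-transposon donor. Each pool was co-transformed with a T7-driven effector plasmid (CRISPR array, tniQ-cas8-cas7-cas6, tnsA-tnsB-tnsC) into E. coli BL21(DE3) and plated with 0.1 mM IPTG at 37°C for 18 h. Input plasmids and genomic integration junctions were PCR-amplified and Illumina-sequenced, with two biological output replicates and four wild-type barcodes as reference. Relative integration efficiency is output/input barcode abundance fold change, normalised to wild-type barcodes and log-transformed.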

[2] = variants of: B1; experiment: relative integration efficiency (T-RL orientation) vs wild-type transposon end (log2 (normalized fold change)); transposon end mutated: left end; higher = more efficient transposition; details: with VchCAST RNA-guided transposition machinery (E. coli BL21(DE3) host, lacZ target)
Outline: as §1

Variant	relative integration efficiency (log2) [1]	relative integration efficiency (log2) [2]
TA A16C G24T T32G A33C A70C T76A T84A C87A A102T T111C T113C	-1.61 ± 0.92	-0.84 ± 0.38
CG A91C	-0.299 ± 1.1	-0.278 ± 0.17
CG A91G	0.0207 ± 0.21	-0.155 ± 0.14
TA A16C G24T T30A T76A T78G C87A A96C T112G T113C	-0.557 ± 0.27	-0.232 ± 0.21
TA A70C T76A T84A C87A A96C T112G T113C	-0.389 ± 0.085	-0.122 ± 0.12
CG A64C	-0.814 ± 1.1	-0.0626 ± 0.11
CG A50C G51T	-0.407 ± 0.67	-0.196 ± 0.22
CG T42A T43A	0.176 ± 0.54	-0.0273 ± 0.049
CG C71A C72A A73C T74G	-2.28 ± 1.8	-2.51 ± 1
TA G24A T30A A70C T76A T86G A96C T110A T113A	0.0588 ± 0.23	-0.265 ± 0.38
CG C89G A90T	0.739 ± 0.17	0.378 ± 0.24
CG A90T	-0.375 ± 0.31	-0.404 ± 0.16
CG A92C A93C C94A A95C	-1.74 ± 0.33	-1.09 ± 0.75
CG G115T T116G G117T A118C A119C T120G C121A G122T A123C G124T T125G	0.199 ± 0.37	0.000247 ± 0.072
CG A29T	-0.0387 ± 0.14	0.26 ± 0.13
CG T12A G13A T30A T31C T32A T86G	-0.319 ± 0.034	-0.119 ± 0.27
CG A99C T100G	-1.66 ± 1.1	-1.87 ± 0.76
CG G7C T8A T9A G10C	< -10	-6.612 ± 0.065
CG A66T A67T	0.205 ± 0.48	-0.0368 ± 0.048
CG A37C T38G T39G A40C	0.21 ± 0.43	-0.0337 ± 0.1
CG T30G T84G T110G	-2.2 ± 0.51	-1.92 ± 0.8
CG A33T A34T	0.663 ± 0.25	0.125 ± 0.061
CG T82G A83C	-1.19 ± 0.87	-1.4 ± 0.66
CG A19C T20G	-2.1 ± 1.2	-2.69 ± 0.82

Variant	relative integration efficiency (log2) [1]	relative integration efficiency (log2) [2]
CG T116A G117C A118T A119T	0.00543 ± 0.19	0.0211 ± 0.042
CG A21T A75T A101T	-1.38 ± 0.99	-1.31 ± 0.37
CG A109G	-0.737 ± 0.88	-0.662 ± 0.16
CG C87G A88T C89G A90T	0.251 ± 0.48	-0.077 ± 0.18
CG A22T G24T T31C A33C	-0.141 ± 0.18	-0.0346 ± 0.14
CA A22T G24T T31C A33C A96C T110A T113A	-0.837 ± 0.2	-0.802 ± 0.25
CG A34T T35A	0.192 ± 0.25	0.209 ± 0.033
CG G51T C52A A53C A54C	-0.964 ± 0.62	-0.488 ± 0.45
CG T28A A29T T30A T31A	-0.974 ± 0.69	-1.12 ± 0.46
CG T57A A58T	-3.38 ± 2.1	-0.792 ± 0.44
CG T20G A21C A22C A23C	-2.4 ± 0.83	-3.18 ± 0.88
CG T12A G13A	-0.256 ± 0.34	-0.294 ± 0.04
CG T12A G13C	0.233 ± 0.21	-0.107 ± 0.067
CG A58T A59T	0.226 ± 0.49	-0.00421 ± 0.16
CG T116A	0.317 ± 0.21	0.0633 ± 0.024
CG T116G	0.159 ± 0.61	0.0899 ± 0.05
CC A22T A23T G24C T25A T76A A77T T78A T79A A102T T104A T105A	-2.83 ± 0.82	-3 ± 1.3
CG C89G	0.0739 ± 0.015	-0.315 ± 0.029
CG C97G	-0.468 ± 0.14	-0.455 ± 0.23
TA A16C G24T T30A T76A T78G C87A A102T T111C T113C	-0.495 ± 0.48	-0.243 ± 0.23
CG A29C T30G	-1.28 ± 1.4	-1.12 ± 0.53
CG C121A A123G G124A T129C G132A A134C A135T A136T A137C C138A C141G G143T C144T	0.708 ± 0.024	0.721 ± 0.23
CG A69T A70T	-0.797 ± 0.57	-0.395 ± 0.4
CG A1T A2T T3A G4C T5A	-0.0748 ± 0.54	0.103 ± 0.061

Variant	relative integration efficiency (log2) [1]	relative integration efficiency (log2) [2]
CG A123C G124T T125G	-0.277 ± 0.038	-0.171 ± 0.067
CG G80C A81T	-2.2 ± 1.5	-2.1 ± 0.85
CG T113A	-0.342 ± 0.22	-0.277 ± 0.047
CG T82G	-0.227 ± 0.47	-0.597 ± 0.43
CG T82C	0.362 ± 0.73	0.536 ± 0.29
CG C14A	-0.739 ± 0.55	-0.546 ± 0.32
CG A62C	0.284 ± 0.025	-0.0795 ± 0.022
CG T12A G13A T30A T31C T32A	-1.04 ± 0.35	-0.578 ± 0.26
CG A92C A93C	-0.222 ± 0.86	-0.331 ± 0.24
GG T86A C87G A88T	0.143 ± 0.77	-0.152 ± 0.19
CG T30A T31C T32A A77C T86G	0.153 ± 0.44	0.116 ± 0.27
GG T31A T32A A33T T86A C87G T111A T112A T113A	-0.524 ± 0.35	-0.495 ± 0.72
CG C49A A50C	-0.934 ± 0.45	-0.598 ± 0.47
CG T110C	-0.691 ± 0.63	-0.405 ± 0.13
CA T104G T113A	-0.00439 ± 0.14	-0.216 ± 0.19
CG T79A G80C A81T T82A	-2.46 ± 2	-1.87 ± 0.95
CG C60G C61G A62T C63G	0.27 ± 0.29	-0.0479 ± 0.14
CG T42G T43G A44C T45G	0.391 ± 0.16	-0.108 ± 0.12
CG C71G C72G	-1.67 ± 1.9	-1.32 ± 0.57
TA A16C G24T T30A T76A A77G C87T T104G T113A	-0.204 ± 0.73	-0.483 ± 0.46
CG T3G G4T	0.453 ± 0.4	0.121 ± 0.041
CG T30A T31C A77C	-0.793 ± 0.14	-0.48 ± 0.16
CG G117T	-0.0744 ± 0.017	-0.0764 ± 0.036
TA A22T G24T T31C A33C T76A A77G C87T A96C T110A T113A	0.345 ± 0.28	-0.753 ± 0.58

Variant	relative integration efficiency (log2) [1]	relative integration efficiency (log2) [2]
TA A16C G24T T32G A33C A70C T76A T84A C87A A96C T112G T113C	-0.915 ± 1.2	-0.234 ± 0.35
CG A96C	0.848 ± 0.0087	0.7239 ± 0.0024
CG A96T	-0.52 ± 0.14	-0.314 ± 0.13
CG A36G	-0.222 ± 0.59	-0.259 ± 0.23
CG A27C T28G	-0.919 ± 0.29	-1.27 ± 0.47
TA G24A T30A T76A T78G C87A T104A T110A T113A	0.464 ± 0.53	-0.242 ± 0.034
CG G24C T25A G26C A27T	-2.36 ± 0.61	-2.38 ± 0.98
CG C87A A88C	0.256 ± 0.18	-0.00605 ± 0.14
CG T56A	0.188 ± 0.11	-0.167 ± 0.0046
CG A22T A23T	-0.158 ± 0.56	-0.421 ± 0.27
CG A93T	-0.975 ± 0.63	-0.479 ± 0.33
CG A107T	-0.794 ± 0.79	-0.795 ± 0.44
CG A107C	-0.569 ± 1.1	-0.425 ± 0.35
TA G24A T30A A70C T76A T86G T104A T110A T113A	-0.21311 ± 4.7e-05	-0.36 ± 0.27
CG C17A C18A A19C T20G	-3.01 ± 0.42	-2.69 ± 0.85
CG A2G	0.28 ± 0.065	0.239 ± 0.039
CG A53C A54C C55A T56G	-0.0934 ± 0.06	-0.592 ± 0.35
CG A21T A22T A23T G24C	-0.979 ± 0.79	-0.775 ± 0.46
CG T76A A77T	-0.19 ± 0.3	0.117 ± 0.012
CG A107T T108A	-0.991 ± 0.38	-0.981 ± 0.55
CG A67C C68A	-0.165 ± 0.81	-0.108 ± 0.25
TA G24A T30A T76A A77G C87T A96C T112G T113C	-0.263 ± 0.26	0.0641 ± 0.26
CG T48A C49G A50T G51C C52G A53T A54T C55G T56A T57A A58T	-2.96 ± 2.6	-3.43 ± 1.1
CG T112A T113A T114A G115C	-0.584 ± 1	0.0734 ± 0.12

Variant	relative integration efficiency (log2) [1]	relative integration efficiency (log2) [2]
CG A47G T48G C52T A53G C55G T56C T57G A58C C60A A62G A66T A67T	-3.24 ± 2.1	-2.77 ± 0.78
CG A58C A59C	-0.146 ± 0.33	-0.0826 ± 0.066
CG T116A G117C	0.431 ± 0.71	0.161 ± 0.0064
CG C68G A69T	-0.877 ± 0.31	-1.02 ± 0.41
CT A22C A23C T76G A77C A102C	-3.01 ± 0.15	-3.81 ± 0.97
CG A29T A83T A109T	-0.979 ± 0.74	-0.428 ± 0.23
TG A16C G24T T30A T76A T78G C87A	-0.0456 ± 0.17	0.0194 ± 0.14
CG A34C T35G T39C T41A T45A G51T C52A A53G A54G C60T A62G C63A	0.531 ± 0.51	-0.0678 ± 0.088
CG A16C A70C A96C	-0.695 ± 0.11	-0.475 ± 0.19
CG T113G T114G	-0.0365 ± 0.41	-0.199 ± 0.073
CG A67T C68G	-0.364 ± 0.41	-0.543 ± 0.47
CG A83T T84A	-0.352 ± 0.65	-0.194 ± 0.16
CG T120G C121A G122T A123C G124T T125G	0.433 ± 0.18	0.166 ± 0.011
CG A101G	-1.62 ± 1.1	-1.22 ± 0.47
CG C68A	-0.255 ± 0.47	-0.433 ± 0.32
CG T48G C49A A50C G51T	-3.52 ± 2.9	-1.55 ± 0.54
CA G24A T30A A96C T112G T113C	0.199 ± 0.4	0.0766 ± 0.11
CG C61T	0.151 ± 0.41	-0.122 ± 0.029
CG T30A T31C T32A	-0.303 ± 0.45	-0.29 ± 0.22
CG A70T C71G	-0.292 ± 0.66	-0.898 ± 0.41
